The values that follow come from patent publication US9029097 (UNIVERSITE DE MONTREAL, dated 2015).

For the assay, the target named is T1, β2AR-GFP10 (human, UniProt P07550 1-413).
T1 construct: whole, on cells; Expressed in HEK293T cells; also called GFP tagged-β2 adrenergic receptor; not shown: GFP10, variant of GFP
The assay can be described thus: BRET2 kinetics, living cells, 10 µM Iso up to 4 min.

B1: QL-Gαi1-122Rluc (other)
chain: MGCTLSAEDKAAVERSKMIDRNLREDGEKAAREVKLLLLGAGESGKSTIVKQMKIIHEAGYSEEECKQYKAVVYSNTIQSIIAIIRAMGRLKIDFGDSARADDARQLFVLAGAAEEGFMTAESGGGGSMTSKVYDPEQRKRMITGPQWWARCKQMNVLDSFINYYDSEKHAENAVIFLHGNAASSYLWRHVVPHIEPVARCIIPDLIGMGKSGKSGNGSYRLLDHYKYLTAWFELLNLPKKIIFVGHDWGACLAFHYSYEHQDKIKAIVHAESVVDVIESWDEWPDIEEDIALIKSEEGEKMVLENNFFVETMLPSKIMRKLEPEEFAAYLEPFKEKGEVRRPTLSWPREIPLVKGGKPDVVQIVRNYNAYLRASDDLPKMFIESDPGFFSNAIVEGAKKFPNTEFVKVKGLHFSQEDAPDEMGKYIKSFVERVLKNEQSGGGGSLAGVIKRLWKDSGVQACFNRSREYQLNDSAAYYLNDLDRIAQPNYIPTQQDVLRTRVKTTGIVETHFTFKDLHFKMFDVGGLRSERKKWIHCFEGVTAIIFCVALSDYDLVLAEDEEMNRMHESMKLFDSICNNKWFTDTSIILFLNKKDLFEEKIKKSPLTICYPEYAGSNTYEEAAAYIQCQFEDLNKRKDTKEIYTHFTCATDTKNVQFVFDAVTDVIIKNNLKDCGLF
notes: unable to hydrolyse GTP; also called Rluc-tagged constitutively active Q204L-Gαi1 mutant
Turning to B1, the binding result is reported as “binds”.
